PMC5567082

Target: polyhistidine-tagged canine PD-L1 protein (cPD-L1-His) (dog)
Assay: SPR; Biacore X100, CM5 chip, His Capture Kit: cPD-L1-His captured by immobilised anti-histidine antibody (approximately 400 RU); cPD-1-Ig or cCD80-Ig flowed over; HBS-EP+ running and dilution buffer; two state reaction model

| Kd | Substance |
| --- | --- |
| 25.4 nM | recombinant canine PD-1 protein (cPD-1-Ig) (Fc fusion) |
| 24.3 nM | recombinant canine CD80 protein fused to rabbit IgG Fc (cCD80-Ig) (Fc fusion) |
